Measurements from patent US10385327B2, “Enhanced E. coli for the production of fatty acids and method of producing the same” (University of Puerto Rico, priority 2012, dated 2019).

Substrate: C/C=C/C(=O)SCCNC(=O)CCNC(=O)[C@H](O)C(C)(C)COP(=O)(O)OP(=O)(O)OC[C@H]1O[C@@H](n2cnc3c(N)ncnc32)[C@H](O)[C@@H]1OP(=O)(O)O
Assay: Kinetic assay of dehydratase activity: hydration of crotonyl-CoA monitored at 235 nm, fit to Michaelis-Menten equation
Assay type: biochemical, Photobacterium profundum
Conditions: other: crotonyl-CoA, hydration reaction, substrate 0-600 μM, 25 mM Tris, 150 mM NaCl, 10% glycerol, pH 8.0
Description: For the cloning of fragments into pET200TOPO SEQ.ID15, the amplified DNA was gel purified using a Gel Extraction Kit and incubated with pET200TOPO. The resulting clones were selected in LB-agar containing kanamycin (100 μg/mL). All resistant clones were introduced into E. coli strain SEQ.ID16 BL21-DE3-Codon Plus-RIL and grown in liquid LB at 37° C. until the OD600=0.4 at which time the temperature was decreased to 22° C.° until the OD600=0.6 at which time protein expression was induced with 1 mM IPTG. […]
Dehydratase activity was measured in a hydration assay by using Crotonyl-CoA and Crotonyl-NAC as substrates. […] The values for the absorbance slope (given in mAU/min) were converted to units of μmole of product per minute by using the following equation: μmole of product/min=[Slope/ε×b]×Voltotal (Eq1)
in which the slope is given by the instrument in units of milliabsorbance (mAU) per minute, b is the path length measured to be 0.89 cm for a Voltotal=200 μl in our 96-well plates. The ε is the molar extinction coefficient resulting from the loss of a double bond as defined by the difference in absorbance between crotonyl-CoA and β-hydroxybutyryl-CoA at a particular wavelength. The extinction coefficient was calculated to be ε=969.9 M^−1 cm^−1 for the reaction monitored at 260 nm and ε=790.7 M^−1 cm^−1 for the reaction monitored at 235 nm. […]

B1: DH1-DH2-UMA (His-tagged dehydratase tetradomain fragment, I1096-N-Term, of pfaC PUFA synthase from Photobacterium profundum; pfaC SEQ.ID17, GenBank AF409100.1; … (protein)
chain: IRKPCIWDYEDLVEYAEGDIANVFGPDYAVIDNYSRRVRLPTTDYLLVSRVTKLDATMLEYKPSTMTTEYDIPVDAPYLVDGQIPWAVAVESGQCDLMLISYLGIDFENKGERVYRLLDCTLTFLGDLPRGGDTLRYDISINNFARNGDTLLFFFSYECFVGDKMVLKMDNGCAGFFTDEELSDGKGVIRTEDEIKSRNLAVKQRFNPLLHCQKTQFDYQTLHNLLDANIAGCFGESHISDRHQPSLCFSSDKFMMIEQISHVDPQGGTWGLGLIEGHKQLEADHWYFPCHFKDDSVMAGSLMAEGCGQLLQFFMMYLGMHTQVENGRFQPLENAPQQVRCRGQVLPQSAVLTYRMEVTEIGLSPRPYAKANIDILLDGKVVVDFQNLGVMIKEESECTRYLGSSDFDSASLASSSYVAESAPAQADVITPVEAPISQQASANAPLMAQIPDLNTAPNKGVIPLQHIEAPIVPDYQNRTPDTVPFTPYHMFEFATGDIEKCFGPDFSIYRGMIPPRTPCGDLQLTTRVIEVNGTRGDFKTPSSCIAEYEVPENAWYFDENSHSSLMPYSVLMEISLQPNGFISGYMGTTLGFPGLELFFRNLDGSGKMLRNVDLRGKTIVNDSRLLSTVMMGTNIVQSFSFELSTDGVPFYEGTAVFGYFKGAALKDQLGLDNGQVTYPWHVNNNRTPDVSINLLDKESRYFNAPLSATGEAQPHYQLAGGRLNFIDKVDITSDGGKAGLGYLYAERTIDPSDWFFQFHFHQDPVMPGSLGVEAIIELMQTYALNKDLGAGFRSPKFGQIQSEVKWKYRGQINPLNKQMSLDVHITAIKDEDGKRIIVGDANLSKDGLRIYEVKDIAICIEEA
Work on B1 yielded a Km of 156 µM and a Vmax of 0.0001 μmol product/min.
